From the supplement of paper PMC10266784

B1: library; numbered along this chain (parent)
chain: MAAAAAAAAEQQSSNGPVKKSMREKAVERRSVNKEHNSNFKAGYIPIDEDRLHKTGLRGRKGNLAICVIILLFILAVINLIITLVIWAVIRIGPNGCDSMEFHESGLLRFKQVSDMGVIHPLYKSTVGGRRNENLVITGNNQPIVFQQGTTKLSVENNKTSITSDIGMQFFDPRTQNILFSTDYETHEFHLPSGVKSLNVQKASTERITSNATSDLNIKVDGRAIVRGNEGVFIMGKTIEFHMGGNMELKAENSIILNGSVMVSTTRLPSSSSGDQLGSGDWVRYKLCMCADGTLFKVQVTSQNMGCQISDNPCGNTH

Variants of: B1
Assay: SGCB cell-surface expression functional score (HA stain, bin4 vs bin1, normalised to synonymous) (log10 ratio); higher = more cell-surface SGCB (functional)
Method in brief: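 Using lentivirus at MOI <0.1, HA-tagged, YFP-fused human beta-sarcoglycan codon-saturation libraries were put into HEK293 cells with stable alpha-, gamma- and delta-sarcoglycan expression, in duplicate transductions. YFP-positive cells were collected by sorting 72 hours later, grown 5–7 days, stained on ice with Alexa Fluor 647 anti-HA, fixed, sorted into four 5% intensity bins and amplicon-sequenced. The functional score takes the median, across codons and transductions, of the log ratio of highest-bin to lowest-bin variant frequency. Within each section, synonymous variants were scaled to mean 0, SD 0.5.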

Variant	SGCB cell-surface expression functional score (log10)
MAAAAAAAAEQQSSNGPVKKSMREKAVERRSVNKEHNSNFKAGYIPIDEDRLHKTGLRGRKGNLAICVIILLFILAVINLIITLVIWAVIRIGPNGIDSMEFHESGLLRFKQVSDMGVIHPLYKSTVGGRRNENLVITGNNQPIVFQQGTTKLSVENNKTSITSDIGMQFFDPRTQNILFSTDYETHEFHLPSGVKSLNVQKASTERITSNATSDLNIKVDGRAIVRGNEGVFIMGKTIEFHMGGNMELKAENSIILNGSVMVSTTRLPSSSSGDQLGSGDWVRYKLCMCADGTLFKVQVTSQNMGCQISDNPCGNTH [C97I]	0.31
MAAAAAAAAEQQSSNGPVKKSMREKAVERRSVNKEHNSNFKAGYIPIDEDRLHKTGLRGRKGNLAICVIILLFILAVINLIITLVIWAVIRIGPNGCDSMEFHESGLLRFKQVSDMGVIHPLYKSTVGGRRNENLVITGNNQPIVFQQGTTKLSVENNKTSITSDIGMQFFDPRTQNILFSTDYETHEFHLPSGVKSLNVQKASTERITSNATSDLNIKVDGRAIVRGNEGVFIMGKTIEFHMGGNMELKAENSIILNGSVMVSTTRLPSSSSGDQLGSGDWVRYKLCMCADGTLFKVQVTSQNMSCQISDNPCGNTH [G306S]	-0.32
MAAAAAAAAEQQSSNGPVKKSMREKAVERRSVNKEHNSNFKAGYIPIDEDRLHKTGLRGRKGNLAICVIILLFILAVINLIITLVIWAVIRIGPNGCDSMEFHESGLLRFKQVSDMGEIHPLYKSTVGGRRNENLVITGNNQPIVFQQGTTKLSVENNKTSITSDIGMQFFDPRTQNILFSTDYETHEFHLPSGVKSLNVQKASTERITSNATSDLNIKVDGRAIVRGNEGVFIMGKTIEFHMGGNMELKAENSIILNGSVMVSTTRLPSSSSGDQLGSGDWVRYKLCMCADGTLFKVQVTSQNMGCQISDNPCGNTH [V118E]	-0.21
MAAAAAAAAEQQSSNGPVKKSMNEKAVERRSVNKEHNSNFKAGYIPIDEDRLHKTGLRGRKGNLAICVIILLFILAVINLIITLVIWAVIRIGPNGCDSMEFHESGLLRFKQVSDMGVIHPLYKSTVGGRRNENLVITGNNQPIVFQQGTTKLSVENNKTSITSDIGMQFFDPRTQNILFSTDYETHEFHLPSGVKSLNVQKASTERITSNATSDLNIKVDGRAIVRGNEGVFIMGKTIEFHMGGNMELKAENSIILNGSVMVSTTRLPSSSSGDQLGSGDWVRYKLCMCADGTLFKVQVTSQNMGCQISDNPCGNTH [R23N]	0.03
MAAAAAAAAEQQSSNGPVKKSMREKAVERRSVNKEHNSNTKAGYIPIDEDRLHKTGLRGRKGNLAICVIILLFILAVINLIITLVIWAVIRIGPNGCDSMEFHESGLLRFKQVSDMGVIHPLYKSTVGGRRNENLVITGNNQPIVFQQGTTKLSVENNKTSITSDIGMQFFDPRTQNILFSTDYETHEFHLPSGVKSLNVQKASTERITSNATSDLNIKVDGRAIVRGNEGVFIMGKTIEFHMGGNMELKAENSIILNGSVMVSTTRLPSSSSGDQLGSGDWVRYKLCMCADGTLFKVQVTSQNMGCQISDNPCGNTH [F40T]	0.19
MAAAAAAAAEQQSSNGPVKKSMREKAVERRSVNKEHNSNFKAGYIPIDEDRLHKTGLRGRKGNLAICVIILLFILAVINLIITLVIWAVIRIGPNGCDSMEFAESGLLRFKQVSDMGVIHPLYKSTVGGRRNENLVITGNNQPIVFQQGTTKLSVENNKTSITSDIGMQFFDPRTQNILFSTDYETHEFHLPSGVKSLNVQKASTERITSNATSDLNIKVDGRAIVRGNEGVFIMGKTIEFHMGGNMELKAENSIILNGSVMVSTTRLPSSSSGDQLGSGDWVRYKLCMCADGTLFKVQVTSQNMGCQISDNPCGNTH [H103A]	0.32
MAAAAAAAAEQQSSNGPVKKSMREKAVERRSVNKEHNSNFKAGYIPIDEDRLHKTGLRGRKGNLAICVIILLFILAVINLIITLVIWAVIRIGPNGCDSMEFHESGLLRFKQVSDMGVIHPLYKSTVGGRRNENLVITGNNQPIVFQQGTTKLWVENNKTSITSDIGMQFFDPRTQNILFSTDYETHEFHLPSGVKSLNVQKASTERITSNATSDLNIKVDGRAIVRGNEGVFIMGKTIEFHMGGNMELKAENSIILNGSVMVSTTRLPSSSSGDQLGSGDWVRYKLCMCADGTLFKVQVTSQNMGCQISDNPCGNTH [S154W]	-0.21
MAAAAAAAAEQQSSNGPVKKSMREKAVERRSVNKEHNSNFKAGYIPIDEDRLHKTGLRGRKGNLAICVIILLFILSVINLIITLVIWAVIRIGPNGCDSMEFHESGLLRFKQVSDMGVIHPLYKSTVGGRRNENLVITGNNQPIVFQQGTTKLSVENNKTSITSDIGMQFFDPRTQNILFSTDYETHEFHLPSGVKSLNVQKASTERITSNATSDLNIKVDGRAIVRGNEGVFIMGKTIEFHMGGNMELKAENSIILNGSVMVSTTRLPSSSSGDQLGSGDWVRYKLCMCADGTLFKVQVTSQNMGCQISDNPCGNTH [A76S]	0.05
MAAAAAAAAEQQSSNGPVKKSMREKAVERRSVNKEHNSNFKAGYIPIDEDRLHKTGLRGRKGNLAICVIILLFILAVINLIITLVIWAVIRIGPNGCDSMEFHESGLLRFKQVSDMGVIHPLYKSTVGGRRNENLVITGNNQPIVFQQGTTKLSVENNKTSITSDIGMQFFDPRTQNILFSTDYETHEFHLPSGVKSLNVQKASTERITSNATSDLNIKVDGRAIVRGNEGVFIMGKTIEFHMGENMELKAENSIILNGSVMVSTTRLPSSSSGDQLGSGDWVRYKLCMCADGTLFKVQVTSQNMGCQISDNPCGNTH [G245E]	1.16
MAAAAAAAAEQQSSNGPVKKSMREKAVERRSVNKEHNSNFKAGYIPIDEDRLHKTGLRGRKGNLAICVIILLFILAVINLIITLVIWAVIRIGPNGCDSMEFHESGLLRFKQVSDMGVIHPLYKSTVGGRRNENLVITGNNQPIVFQQGTTKLSVENNKTSITSDIGMQFFRPRTQNILFSTDYETHEFHLPSGVKSLNVQKASTERITSNATSDLNIKVDGRAIVRGNEGVFIMGKTIEFHMGGNMELKAENSIILNGSVMVSTTRLPSSSSGDQLGSGDWVRYKLCMCADGTLFKVQVTSQNMGCQISDNPCGNTH [D172R]	-0.58
MAAAAAAAAEQQSSNGPVKKSMREKAVERRSVNKEHNSNFKAGYIPIDEDRLHKTGLRGRKGNLAICVIILLFILAVINLIITLVIWAVIRIKPNGCDSMEFHESGLLRFKQVSDMGVIHPLYKSTVGGRRNENLVITGNNQPIVFQQGTTKLSVENNKTSITSDIGMQFFDPRTQNILFSTDYETHEFHLPSGVKSLNVQKASTERITSNATSDLNIKVDGRAIVRGNEGVFIMGKTIEFHMGGNMELKAENSIILNGSVMVSTTRLPSSSSGDQLGSGDWVRYKLCMCADGTLFKVQVTSQNMGCQISDNPCGNTH [G93K]	-0.15
MAAAAAAAAEQQSSNGPVKKSMREKAVERRSVNKEHNSNFKAGYIPIDEDRLHKTGLRGRKGNLAICVIILLFILAVINLIITLVIWAVIRIGPNGCDSMEFHESGLLRFKQVSDMGVIHPLYKSTVGGRRNENLPITGNNQPIVFQQGTTKLSVENNKTSITSDIGMQFFDPRTQNILFSTDYETHEFHLPSGVKSLNVQKASTERITSNATSDLNIKVDGRAIVRGNEGVFIMGKTIEFHMGGNMELKAENSIILNGSVMVSTTRLPSSSSGDQLGSGDWVRYKLCMCADGTLFKVQVTSQNMGCQISDNPCGNTH [V136P]	-1.03
MAAAAAAAAEQQSSNGPVKKSMREKAVERRSVNKEHNSNFKAGYIPIDEDRLHKTGLRGRKGNLAICVIILLFILAVINLIITLVIWAVIRIGPNGCDSMEFHESGLLRFKQVSDMGVIHPLYKSTVGGRRNENLVTTGNNQPIVFQQGTTKLSVENNKTSITSDIGMQFFDPRTQNILFSTDYETHEFHLPSGVKSLNVQKASTERITSNATSDLNIKVDGRAIVRGNEGVFIMGKTIEFHMGGNMELKAENSIILNGSVMVSTTRLPSSSSGDQLGSGDWVRYKLCMCADGTLFKVQVTSQNMGCQISDNPCGNTH [I137T]	-0.7
MAAAAAAAAEQQSSNGPVKKSMREKAVERRSVNKEHNSNFKAGYIPIDEDRLHKTGLRGRKGNLAICVIILLFILAVINLIITLVIWAVIRIGPNGCDSMEFHESGLLRFKQRSDMGVIHPLYKSTVGGRRNENLVITGNNQPIVFQQGTTKLSVENNKTSITSDIGMQFFDPRTQNILFSTDYETHEFHLPSGVKSLNVQKASTERITSNATSDLNIKVDGRAIVRGNEGVFIMGKTIEFHMGGNMELKAENSIILNGSVMVSTTRLPSSSSGDQLGSGDWVRYKLCMCADGTLFKVQVTSQNMGCQISDNPCGNTH [V113R]	-0.07
MAAAAAAAAEQQPSNGPVKKSMREKAVERRSVNKEHNSNFKAGYIPIDEDRLHKTGLRGRKGNLAICVIILLFILAVINLIITLVIWAVIRIGPNGCDSMEFHESGLLRFKQVSDMGVIHPLYKSTVGGRRNENLVITGNNQPIVFQQGTTKLSVENNKTSITSDIGMQFFDPRTQNILFSTDYETHEFHLPSGVKSLNVQKASTERITSNATSDLNIKVDGRAIVRGNEGVFIMGKTIEFHMGGNMELKAENSIILNGSVMVSTTRLPSSSSGDQLGSGDWVRYKLCMCADGTLFKVQVTSQNMGCQISDNPCGNTH [S13P]	0.2
MAAAAAAAAEQQSSNGPVKKSMREKAVERRSVNKEHNSNFKAGYIPIDEDRLHKTGLRGRKGNLAICVIILLFILAVINLIITLVIWAVIRIGPNGCDSMEFHESGLLRFKQVSDMGVIHPLYKSTVGGRRNENLVITGNNQPIVFQQGTTKLSVENNKTSITSDIGMQFFDPRTQNILFSTDYETHRFHLPSGVKSLNVQKASTERITSNATSDLNIKVDGRAIVRGNEGVFIMGKTIEFHMGGNMELKAENSIILNGSVMVSTTRLPSSSSGDQLGSGDWVRYKLCMCADGTLFKVQVTSQNMGCQISDNPCGNTH [E188R]	-0.8
MAAAAAAAAEQQSSNGPVKKSMREKAVERRSVNKEHNSNFKAGYIPIDEDRLHKTGLRGRKGNLAICVIILLFILAVINLIITLVIWAVIRIGPNGCDSMEFHESGLLRFKQVSDMGVIHPLYKSTVGGRRNENLVITGNNQPIVFQQGTTKLSVENNKTSITSDIGMQFFDPRTQNILFSTDYETHEFHLPSGVKSLNVQKASTERITSNATSDLNIKVDGRAIVRGNEGVFIMGKTIEFHMGGNMELKAENSIILNGSVMVSTTRLPSSSSGDQLGSGDWVRYKLCMCADGTLFCVQVTSQNMGCQISDNPCGNTH [K297C]	-0.07
MAAAAAAAAEQQSSNGPVKKSMREKAVERRSVNKEHNSNFKAGYIPIDEDRLHKTGLRGRKGNLAICVIHLLFILAVINLIITLVIWAVIRIGPNGCDSMEFHESGLLRFKQVSDMGVIHPLYKSTVGGRRNENLVITGNNQPIVFQQGTTKLSVENNKTSITSDIGMQFFDPRTQNILFSTDYETHEFHLPSGVKSLNVQKASTERITSNATSDLNIKVDGRAIVRGNEGVFIMGKTIEFHMGGNMELKAENSIILNGSVMVSTTRLPSSSSGDQLGSGDWVRYKLCMCADGTLFKVQVTSQNMGCQISDNPCGNTH [I70H]	-0.21
MAAAAAAAAEQQSSNGPVKKSMREKAVERRSVNKEHNSNFKAGYIPIDEDRLHKTGLRGRKGNLAICVIILLFILAVINLIITLVIWAVIRIGPNGCDSMEFHESGLLRFKQVSDMGVIHPLYKSTVGGRRNENLVITGNNQPIVFQQGTTKLSVENNKTSITSDINMQFFDPRTQNILFSTDYETHEFHLPSGVKSLNVQKASTERITSNATSDLNIKVDGRAIVRGNEGVFIMGKTIEFHMGGNMELKAENSIILNGSVMVSTTRLPSSSSGDQLGSGDWVRYKLCMCADGTLFKVQVTSQNMGCQISDNPCGNTH [G167N]	-1.11
